Substrate: C/C=C1/[C@H](O[C@@H]2O[C@H](CO)[C@@H](O)[C@H](O)[C@H]2O)OC=C(C(=O)OC)[C@H]1CC(=O)OCCc1ccc(O)c(O)c1
Test: HPLC determination of hydrolysed oleuropein
Type: biochemical, Olea europaea
Conditions: free purified recombinant enzyme; standard assay

B1: OepGLU (recombinant olive β-glucosidase) (Olea europaea) (protein)
chain: MDIQSNVLTITSGSSPTDTSSNGQAAKSTKERIKRSDFPSDFVFGAATASYQVEGAWNEGGKGMSNWDYFTQSQPGGISDFSNGTIAIDHFNMFKDDVVVMKKLGLKAYRFSLSWPRILPGGRLCHGVSKEGVQFYNDLIDALLAADIEPYITIFHWDIPQCLQLEYGGFLHERVVQDFIEYSEICFWEFGDRVKYWITLNEPWSFTVQGYVAGAFPPNRGVTPKDTEETKKHARLHRGGGKLLTAFKYGNPGTEPYKVAHNLILCHAHAVDIYRTKYQESQGGKIGITNCISWNEPLTDSQEDKDAATRGNDFMLGWFVEPVVTGEYPESMIKNVGDRLPKFSEKEEKLVKGSYDFLGINYYTSTYTSDDPTKPTTDSYLTDSRTKTSHERNKVPIGAQAGSDWLYIVPWGIYRVMVDMKKRYNDPVIYITENGVDEVNDKSKTSTEALKDDIRIHYHQEHLYYLKLAMDQGVNLKGYFIWSLFDNFEWAAGFSVRFGVMYVDYANGRYTRLPKRSAVWWRNFLTKPTAVPLKNEPEKSEDRRKRLRGST
Km: 26.8 mM

— paper PMC5682033, “An Oleuropein β-Glucosidase from Olive Fruit Is Involved in Determining the Phenolic Composition of Virgin Olive Oil” (Frontiers in Plant Science, 2017)
